Source: patent US20030166868A1 (Genentech, published 2003)

Assays:
[1] = target: T1, FcγRIIb α subunit ECD-6His-GST fusion protein (UniProt P31994 43-217); assay: ELISA, E27:chimeric IgE:VEGF (1:1:2) immune complex on plate-coated receptor ECD-6His-GST
T1 construct: Expressed in 293 cells; also called FcγRIlb; not shown: glutathione S transferase (GST)
T1 sequence: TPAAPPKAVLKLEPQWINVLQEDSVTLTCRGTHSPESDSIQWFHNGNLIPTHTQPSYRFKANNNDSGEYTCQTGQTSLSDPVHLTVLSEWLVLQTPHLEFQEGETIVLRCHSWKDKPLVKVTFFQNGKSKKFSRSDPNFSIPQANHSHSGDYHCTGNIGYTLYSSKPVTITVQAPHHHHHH

[2] = target: T2, FcγRIIa α subunit ECD-6His-GST fusion protein (UniProt P12318 34-217); assay: as above
T2 construct: Expressed in 293 cells; not shown: glutathione S transferase (GST)
T2 sequence: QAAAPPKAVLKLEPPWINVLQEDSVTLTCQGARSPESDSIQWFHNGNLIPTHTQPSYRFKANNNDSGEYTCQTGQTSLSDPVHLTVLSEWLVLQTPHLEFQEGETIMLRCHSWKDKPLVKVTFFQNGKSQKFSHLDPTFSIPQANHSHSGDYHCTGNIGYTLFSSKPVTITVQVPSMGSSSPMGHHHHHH

[3] = target: T3, FcγRIIIa α subunit ECD-6His-GST fusion protein (UniProt P08637 17-208); assay: as above
T3 construct: Expressed in 293 cells; also called FcγIII; FcγIIIa; not shown: glutathione S transferase (GST)

[4] = target: T4, FcγRI α subunit-GST fusion (UniProt P12314 16-292); assay: ELISA, monomeric IgG at 10 ug/ml on plate-coated FcγRI α subunit-GST fusion
T4 construct: ECD-6His-GST fusion expressed in 293 cells; not shown: glutathione S transferase (GST)
T4 sequence (P12314 other isoform, or with tags, fused parts or gaps, form in doubt): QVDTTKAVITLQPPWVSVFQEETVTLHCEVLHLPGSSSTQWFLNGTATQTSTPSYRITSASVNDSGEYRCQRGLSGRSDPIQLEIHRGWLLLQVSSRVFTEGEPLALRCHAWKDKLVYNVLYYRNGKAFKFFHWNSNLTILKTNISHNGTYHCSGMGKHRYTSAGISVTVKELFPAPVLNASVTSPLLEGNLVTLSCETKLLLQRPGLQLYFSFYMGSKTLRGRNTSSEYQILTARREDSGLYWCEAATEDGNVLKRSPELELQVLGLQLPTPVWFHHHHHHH

T3 sequence (P08637 other isoform, or with tags, fused parts or gaps, form in doubt): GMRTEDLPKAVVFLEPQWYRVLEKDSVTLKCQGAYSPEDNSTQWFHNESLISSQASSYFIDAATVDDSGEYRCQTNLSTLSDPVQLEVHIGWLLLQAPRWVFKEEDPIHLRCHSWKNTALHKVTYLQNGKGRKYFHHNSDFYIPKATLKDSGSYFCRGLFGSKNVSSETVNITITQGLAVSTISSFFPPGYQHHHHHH

Binder	binding as a percentage of the wild type [1]	binding as a percentage of the wild type [2]	binding as a percentage of the wild type [3]	binding as a percentage of the wild type [4]
E27 anti-IgE antibody, wild type (humanized IgG1) (antibody, In the FcγRIIa, FcγRIIb and FcγRIIIa ELISAs it stood as an immune complex E27:chimeric IgE:VEGF (1:1:2); in the FcγRI ELISA as monomeric IgG; also called recombinant anti-IgE E27; wt) heavy: not shown light: DIQLTQSPSSLSASVGDRVTITCRASKPVDGEGDSYMNWYQQKPGKAPKLLIYAASYLESGVPSRFSGSGSGTDFTLTISSLQPEDFATYYCQQSHEDPYTFGQGTKVEIKRTVAAPSVFIFPPSDEQLKSGTASVVCLLNNFYPREAKVQWKVDNALQSGNSQESVTEQDSKDSTYSLSSTLTLSKADYEKHKVYACEVTHQGLSSPVTKSFNRGEC	100 % of wild type	100 % of wild type	100 % of wild type	100 % of wild type
E27 anti-IgE antibody mutant P331A (antibody, also called P331A (E27 background)) heavy: not shown light: DIQLTQSPSSLSASVGDRVTITCRASKPVDGEGDSYMNWYQQKPGKAPKLLIYAASYLESGVPSRFSGSGSGTDFTLTISSLQPEDFATYYCQQSHEDPYTFGQGTKVEIKRTVAAPSVFIFPPSDEQLKSGTASVVCLLNNFYPREAKVQWKVDNALQSGNSQESVTEQDSKDSTYSLSSTLTLSKADYEKHKVYACEVTHQGLSSPVTKSFNRGEC	58 % of wild type	86 % of wild type	73 % of wild type	74 % of wild type
E27 anti-IgE antibody mutant E318A (antibody, also called E318A (E27 background)) heavy: not shown light: DIQLTQSPSSLSASVGDRVTITCRASKPVDGEGDSYMNWYQQKPGKAPKLLIYAASYLESGVPSRFSGSGSGTDFTLTISSLQPEDFATYYCQQSHEDPYTFGQGTKVEIKRTVAAPSVFIFPPSDEQLKSGTASVVCLLNNFYPREAKVQWKVDNALQSGNSQESVTEQDSKDSTYSLSSTLTLSKADYEKHKVYACEVTHQGLSSPVTKSFNRGEC	106 % of wild type	113 % of wild type	104 % of wild type	93 % of wild type
E27 anti-IgE antibody mutant P329A (antibody, also called P329A (E27 background)) heavy: not shown light: DIQLTQSPSSLSASVGDRVTITCRASKPVDGEGDSYMNWYQQKPGKAPKLLIYAASYLESGVPSRFSGSGSGTDFTLTISSLQPEDFATYYCQQSHEDPYTFGQGTKVEIKRTVAAPSVFIFPPSDEQLKSGTASVVCLLNNFYPREAKVQWKVDNALQSGNSQESVTEQDSKDSTYSLSSTLTLSKADYEKHKVYACEVTHQGLSSPVTKSFNRGEC	96 % of wild type	111 % of wild type	85 % of wild type	104 % of wild type
E27 anti-IgE antibody mutant K320A (antibody, also called K320A (E27 background)) heavy: not shown light: DIQLTQSPSSLSASVGDRVTITCRASKPVDGEGDSYMNWYQQKPGKAPKLLIYAASYLESGVPSRFSGSGSGTDFTLTISSLQPEDFATYYCQQSHEDPYTFGQGTKVEIKRTVAAPSVFIFPPSDEQLKSGTASVVCLLNNFYPREAKVQWKVDNALQSGNSQESVTEQDSKDSTYSLSSTLTLSKADYEKHKVYACEVTHQGLSSPVTKSFNRGEC	83 % of wild type	94 % of wild type	72 % of wild type	102 % of wild type
E27 anti-IgE antibody mutant K322A (antibody, also called K322A (E27 background)) heavy: not shown light: DIQLTQSPSSLSASVGDRVTITCRASKPVDGEGDSYMNWYQQKPGKAPKLLIYAASYLESGVPSRFSGSGSGTDFTLTISSLQPEDFATYYCQQSHEDPYTFGQGTKVEIKRTVAAPSVFIFPPSDEQLKSGTASVVCLLNNFYPREAKVQWKVDNALQSGNSQESVTEQDSKDSTYSLSSTLTLSKADYEKHKVYACEVTHQGLSSPVTKSFNRGEC	101 % of wild type	109 % of wild type	90 % of wild type	90 % of wild type
